# From the DeepSol protein solubility set
# Test: soluble on expression in E. coli; label from the status in PepcDB or PDB records
row,Sequence,soluble on expression in E. coli
1,MSLKKLRIGVVGLGGIAQKAWLPVLAAASDWTLQGAWSPTRAKALPICESWRIPYADSLSSLAASCDAVFVHSSTASHFDVVSTLLNAGVHVCVDKPLAENLRDAERLVELAARKKLTLMVGFNRRFAPLYGELKTQLATAASLRMDKHRSNSVGPHDLYFTLLDDYLHVVDTALWLSGGKASLDGGTLLTNDAGEMLFAEHHFSAGPLQITTCMHRRAGSQRETVQAVTDGALIDITDMREWREERGQGVVHKPIPGWQSTLEQRGFVGCARHFIECVQNQTVPQTAGEQAVLAQRIVDKIWRDAMSEEGGSHHHHHH,soluble
2,MVKETKFYDILGVPVTATDVEIKKAYRKCALKYHPDKNPSEEAAEKFKEASAAYEILSDPEKRDIYDQFGEDGLSGAGGAGGFPGGGFGFGDDIFSQFFGAGGAQRPRGPQRGKDIKHEISASLEELYKGRTAKLALNKQILCKECEGRGGKKGAVKKCTSCNGQGIKFVTRQMGPMIQRFQTECDVCHGTGDIIDPKDRCKSCNGKKVENERKILEVHVEPGMKDGQRIVFKGEADQAPDVIPGDVVFIVSERPHKSFKRDGDDLVYEAEIDLLTAIAGGEFALEHVSGDWLKVGIVPGEVIAPGMRKVIEGKGMPIPKYGGYGNLIIKFTIKFPENHFTSEENLKKLEEILPPRIVPAIPKKATVDECVLADFDPAKYNRTRASRGGANYDSDEEEQGGEGVQCASQ,not soluble
3,AHHHHHHGSRFLIRLVPEDKDRAFKVPYNHQYYLQGLIYNAIKSSNPKLATYLHEVKGPKLFTYSLFMAEKREHPKGLPYFLGYKKGFFYFSTCVPEIAEALVNGLLMNPEVRLWDERFYLHEIKVLREPKKFNGSTFVTLSPIAVTVVRKGKSYDVPPMEKEFYSIIKDDLQDKYVMAYGDKPPSEFEMEVLIAKPKRFRIKPGIYQTAWHLVFRAYGNDDLLKVGYEVGFGEKNSLGFGMVKVEGNKTTKEAEEQEKITFNSREELKTGV,not soluble
4,MQNAGSLVVLGSINADHILNLQSFPTPGETVTGNHYQVAFGGKGANQAVAAGRSGANIAFIACTGDDSIGESVRQQLATDNIDITPVSVIKGESTGVALIFVNGEGENVIGIHAGANAALSPALVEAQRERIANASALLMQLESPLESVMAAAKIAHQNKTIVALNPAPARELPDELLALVDIITPNETEAEKLTGIRVENDEDAAKAAQVLHEKGIRTVLITLGSRGVWASVNGEGQRVPGFRVQAVDTIAAGDTFNGALITALLEEKPLPEAIRFAHAAAAIAVTRKGAQPSVPWREEIDAFLDRQR,soluble
5,MTASLMNTGKKNPFRDTQQGEYGNGDRNDWVMQASCRNGDPDALFVRGAEQRRAAAICRQCPVMIQCRADALDNKVEFGVWGGLTERQRRAILRKNPHVDSWEQFFAQGGELLGM,not soluble
6,MSLPNEQPGTGPADTTLEQQDTAAAEVGHPRRIRSFVRRAGRTSTGQQRAIDELGPRFLLPYAAAPLDWEAAFGRTGARRIFEIGFGMGETSAHIAQLRPDDDFLGVEVHEPGVGALLKLIGERGIGNVRIVSHDAVEVLAQMIPEGTLDGIHVFFPDPWHKKRHNKRRLIQGPFVARLAAHLRPGGYLHCATDWEEYAHQMLEVLSAEPLLENTADGFAPRPDYRPVTKFEKRGLRLGHGVWDVVFRKREGHHHHHH,not soluble
7,MIEKVLVVVIIGVVGAYAQGSCRTDQHEMTCRGKNSLHDLKKDQDYLEVDTLNVHQAKLDLTDDLVPDGINLSHLTLLNATDNQITRIGRRGFDKIRNMQFLYLSINQISHSQPDPFQALEKLKRLEMNDALDGNMEEKSDMLRNFFHSKNSFVHLAQIELNKNKIEGIYPKTFCGIQGLQRLELSNNRIPSFDFARTCLKELKALMLAGNLIQKIPADIWDFLPSLSSLDISNNPIDCDCATIRLLSGDDVVFLNQADTKCASPPELEGKRIFELSRDYCKTTRNPRGKASFFQFLVLFVIAVGSEFLF,not soluble
8,GPLGSVGSWECPVCCVSNKAEDSRCVSCTSEKPGLVSASSSNSVPVSLPSGGCLGLDKFKKPEGSWDCEVCLVQNKADSTKCIACESAKPGT,soluble
9,MADKSAYMGAGGYGSGYMGSNASSSGYAREDYAQGGNGGGQQQQNQGSGGNTNPGGQVFKARTDQSCYLGP,not soluble
10,MSLALSTEQKTKMWAMLNQTRGQIGLTAYKDYIFGILFYKYLSEKATHWLNGVLRGENWENVYSQDSVKALNYMKKNLGYAIQPNEFFVDWKKAIDTDRFNIGMMTDTFTHFNQQIAFEAKNDFEGIFDGMRFDSADLGANAQARASVMISMIELLSSPEFDLSGSNDTVSDIYEYLVAQFATVLASDMGQYYTPKEISNVMARILTFGREDMEKFSIFDPTVGSGSLLLTTASYMKNSGRRGVIKYYGQEKDATPYRLSRMNLMMHGIEYNDININHADTLESDWPDGVVDGKDTPRMFDAVMANPPYSAHWNNKDREDDPRWREYGVSPKTKADYAFLLHCLYHLEDNGRMAIILPHGVLFRGASEGRIRKALIDKHQIEAIIGFPDKLFLNTSIPVCVVILRKNRIESDILFVDASKGFEKIKKQNNLRSEDVEKIVDTVINRKEIEKYSHVATLDEIKENDYNLNIPRYVDTFEEEEAIDLVALGNEMVTLNADIKKAETDFLGLLDELAVTPDTKEIIEATKAVFREGHHHHHH,soluble
11,MGSDKIHHHHHHMAGLERGELRQALLAEVKKVCAGQGPEAVSISKIGKSLGVSSGAPFRLFPSREHIFAALIESEMERLDATFERIWSCKTTDPVLRLTDICQAYVDHARTEPAMFRLAFSVSAKAMGAVKLQKIGEDVYEKVQRAVAACVPRHTTTDQVELKSYLLWSTIHGHVMLCMTGQMDDQSIDLPDEIVVASAVQGILKAG,not soluble
12,MPTGKSESSDISEVVGNMEISKVEGLEACIGMSHEVSTTPAAELAAFRARKVALITGISGQDGSYLAELLLSKGYKVHGIIRRSSSFNTARIEHLYSNPITHHGDSSFSLHYGDMTDSSCLIKLISTIEPTEVYHLAAQSHVKVSFDLPEYTAEVDAVGTLRLLDAIHACRLTEKVRFYQASTSELYGKVQEIPQSEKTPFYPRSPYAVAKMYGYWIVVNYREAYNMFACNGILFNHESPRRGETFVTRKITRSVAKISLGQQESIELGNLSALRDWGHAREYVEAMWRILQHDSPDDFVIATGKQFSVREFCNLAFAEIGEVLQWEGEGVEEVGKNKDGVIRVKVSPKYYRPTEVETLLGNAEKAKKTLGWEAKVTVPELVKEMVASDIILMKSNPMA,not soluble
13,MEATRNETKPVWVYIIFRKNHCSGHEKMTVNISFDGPIFWKRQVAYIYCCSCHFDEHEGPLMAILEKFEQRVERVCLVDKPVDYPFLPDSLFSYMANKMPKLQFIYLRELDLEKINRGTVVELANHPNLKKVIVHLCRNYEVLEDFRNLPQLLVVKGEIMGLKVSTW,not soluble
14,GPGSSISNLSMQTHAARMRTFMYWPSSVPVQPEQLASAGFYYVGRNDDVKCFCCDGGLRCWESGDDPWVEHAKWFPRCEFLIRMKGQEFVDEIQGRY,soluble
15,MKVRFLQISDLHFQFQNYDTIVMRDKLLDFIEVLRRESDFDFLLLTGDIAHKGDVYNEDVKEYLNGIIKSMGLSKNNVHLVPGNHDISRDMTRTLLIDSIMKSPNPSEMLDKLDQKATNILVEGQRKFFDFYEDFMGVKYPEEDLHFLYQSEKYNVLSINTCLLSDKKGEEGTLLTAQMKLYKAIRKMNKEKNKGKVLNIAIGHHTLGCIESSERESIKAHFDDYFIDLYLAGHVHDSSFNITANTNENPFLELVSGAIIKDEYATPEFISVDVNLDNGETEVTYYIWNTEYKYWSKNNQGGRRLQEGKLNYKINRLESLIEKEIEDNDDKIDEDEFKSFIIDFHEYRESYKTFTSNFDNQIGLDKKFYDMKSGETFKRKFDSYSEYFGVINHIMDSTSYVSADKKELIAETIVDKYLEFHNQYNNGDEIFVKIVNEIYLECHSVLPYSKALTKKYIKILTCWCIYECEIFNDNKRSVKNDLEHHHHHH,soluble
16,DIHPYSVSYSWDKQVEDEDHMEVFPAGSSFPSTKLITLNRTGDFSMAASYTDITQLPPNTPEQIANWEITGVQLPEGQDSVPVKLKLRCDPSGLHTIEEAYTIEDIEVEEPIPLPEDAPEDAEQEFKKVTKTVKKDDLTIVAHTFGLDAKKLNELIEKENEMLAQDKLVAETEDRKNTLE,not soluble
